Measured values published in patent US20250270315A1 (ELPISCIENCE SUZHOU BIOPHARMA, published 2025).

Tests used:
[1] = target: Human SIRPα v1 (antigen of the Octet and Biacore affinity measurements) (human, UniProt P78324 31-370, limits assumed); assay: SPR (Biacore), 1:1 binding model
Method: The humanized antibodies were characterized for binding affinity against human SIRPα v1, human SIRPα v2 using Surface Plasmon Resonance technology (Biacore system). The association and dissociation curves were fit with 1:1 binding model, and the Ka/Kd/KD values for each antibody were calculated.

[2] = target: T1, human SIRPγ stably expressed on 293F cells (human, UniProt Q9P1W8 29-387); assay: FACS, 293F-hSIRPγ cells
T1 construct: whole, on cells
Text: (§1) All the humanized antibodies as tested were confirmed to retain the similar activity as the parental antibody of 025c to bind to SIRP family members.

[3] = target: full length human SIRPα v1 with a small beta-gal fragment (ED) fused to its C-terminal, expressed in K562 … (human, UniProt P78324 31-504); assay: cell-based or functional assay
[4] = target: T2, human SIRPβ stably expressed on CHOK1 cells (human, UniProt O00241 30-398); assay: FACS, CHOK1 cells stably expressing human SIRPβ
T2 construct: whole, on cells; also called CHOK1-human SIRPB; CHOK1-hSIRPβ
Text: as §1

[5] = target: T3, human SIRPα v1 ECD recombinant protein (tag not given) (human, UniProt P78324 31-373); assay: competitive ELISA, mFc-CD47 ECD on coated SIRPα v1 ECD
T3 construct: extracellular domain; also called biotin labeled soluble human SIRPα v1 ECD recombinant protein; ELISA microplate coated human SIRPα v1 ECD
Method: (§2) Competitive ELISA assay was used to determine whether the purified chimeric antibodies can block CD47 and SIRPα interaction. Briefly, antibody and mFc tagged human CD47 ECD recombinant protein were co-incubated with ELISA microplate coated human SIRPα v1 ECD (FIGS. 6A and 6B) or human SIRPα v2 ECD (FIGS. 7A and 7B) recombinant protein. After washing, HRP labeled anti-mouse Fc 2nd antibody (Sigma) was added and incubated at 37° C. for 1 hour. Then, 100 μl/well of TMB solution (Biotechnology) was added. After incubation for 15 minutes at room temperature, the reaction was stopped by the addition of 50 μl of 1N HCl. OD 450 nm was read. Blocking ratio was determined by blockade of human CD47 ECD recombinant protein binding to ELISA microplate coated human SIRPα ECD recombinant protein. Other than 005, all antibodies as tested can block interaction between human CD47 and different human SIRPα variants.
(§3) The humanized antibodies were tested for the ability to block CD47 and SIRPα interaction with competitive ELISA assay (refer to methods described in Example 4.2.3.).

[6] = target: T2, human SIRPβ stably expressed on CHOK1 …; assay: FACS, CHOK1-hSIRPβ cells (columns c6 and c7 read as swapped)
Text: as §1

[7] = target: T4, human SIRPα v2 ECD recombinant protein (tag not given) (human); assay: competitive ELISA, mFc-CD47 ECD on coated SIRPα v2 ECD
T4 construct: extracellular domain; also called ELISA microplate coated human SIRPα v2 ECD
Method: as §2, §3

[8] = target: T5, full length human SIRPα v1 stably expressed on CHOK1 or 293F cells (human, UniProt P78324 31-504); assay: FACS, CHOK1-hSIRPα v1 cells
T5 construct: whole, on cells; also called CHOK1-human SIRPα v1; CHOK1-hSIRPα v1
Text: as §1

T1 sequence (Q9P1W8 29-387): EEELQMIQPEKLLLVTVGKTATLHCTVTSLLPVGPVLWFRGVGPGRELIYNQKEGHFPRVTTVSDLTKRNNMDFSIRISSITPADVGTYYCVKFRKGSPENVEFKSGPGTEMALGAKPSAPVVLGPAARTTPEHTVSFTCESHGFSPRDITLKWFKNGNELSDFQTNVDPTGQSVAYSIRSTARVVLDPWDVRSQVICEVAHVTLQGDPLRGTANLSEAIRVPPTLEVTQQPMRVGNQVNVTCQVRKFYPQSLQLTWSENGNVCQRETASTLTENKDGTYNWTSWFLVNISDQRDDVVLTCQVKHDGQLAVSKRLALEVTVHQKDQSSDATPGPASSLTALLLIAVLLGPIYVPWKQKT
T2 sequence (O00241 30-398): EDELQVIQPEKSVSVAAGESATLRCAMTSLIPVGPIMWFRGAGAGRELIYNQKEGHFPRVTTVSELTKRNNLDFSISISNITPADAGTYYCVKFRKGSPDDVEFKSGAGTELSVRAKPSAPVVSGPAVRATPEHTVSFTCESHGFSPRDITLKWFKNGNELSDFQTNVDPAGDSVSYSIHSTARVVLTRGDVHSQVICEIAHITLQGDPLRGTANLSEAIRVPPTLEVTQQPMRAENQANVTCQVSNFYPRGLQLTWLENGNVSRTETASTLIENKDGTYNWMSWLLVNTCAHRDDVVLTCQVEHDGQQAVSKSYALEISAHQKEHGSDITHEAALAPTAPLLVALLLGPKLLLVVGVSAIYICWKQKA
T5 sequence (P78324 31-504): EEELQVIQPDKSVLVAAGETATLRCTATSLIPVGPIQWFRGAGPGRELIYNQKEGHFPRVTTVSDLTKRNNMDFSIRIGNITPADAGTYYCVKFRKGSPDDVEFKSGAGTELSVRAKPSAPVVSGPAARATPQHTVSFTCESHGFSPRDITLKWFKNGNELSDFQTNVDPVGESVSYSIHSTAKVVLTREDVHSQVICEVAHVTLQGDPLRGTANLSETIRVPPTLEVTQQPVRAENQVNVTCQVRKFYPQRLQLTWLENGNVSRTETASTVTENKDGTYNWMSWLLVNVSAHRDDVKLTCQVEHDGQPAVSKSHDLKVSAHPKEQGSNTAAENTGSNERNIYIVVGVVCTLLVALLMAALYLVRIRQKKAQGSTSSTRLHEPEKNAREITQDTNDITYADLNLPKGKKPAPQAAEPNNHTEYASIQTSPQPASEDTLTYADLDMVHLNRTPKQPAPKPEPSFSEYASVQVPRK
Chain of full length human SIRPα v1 with a small beta-gal fragment (ED) fused to its C-terminal, expressed in K562 … (P78324 31-504): as above
Chain of Human SIRPα v1 (antigen of the Octet and Biacore affinity measurements) (P78324 31-370 limits assumed): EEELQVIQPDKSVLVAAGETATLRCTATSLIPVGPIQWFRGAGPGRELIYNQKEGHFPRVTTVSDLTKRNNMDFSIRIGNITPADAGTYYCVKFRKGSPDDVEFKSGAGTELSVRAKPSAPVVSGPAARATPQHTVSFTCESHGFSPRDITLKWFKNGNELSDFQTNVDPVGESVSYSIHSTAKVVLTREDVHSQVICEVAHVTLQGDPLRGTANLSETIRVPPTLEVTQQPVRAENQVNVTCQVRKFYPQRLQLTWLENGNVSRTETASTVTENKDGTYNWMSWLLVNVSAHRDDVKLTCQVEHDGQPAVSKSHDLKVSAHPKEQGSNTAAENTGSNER
T3 sequence (P78324 31-373): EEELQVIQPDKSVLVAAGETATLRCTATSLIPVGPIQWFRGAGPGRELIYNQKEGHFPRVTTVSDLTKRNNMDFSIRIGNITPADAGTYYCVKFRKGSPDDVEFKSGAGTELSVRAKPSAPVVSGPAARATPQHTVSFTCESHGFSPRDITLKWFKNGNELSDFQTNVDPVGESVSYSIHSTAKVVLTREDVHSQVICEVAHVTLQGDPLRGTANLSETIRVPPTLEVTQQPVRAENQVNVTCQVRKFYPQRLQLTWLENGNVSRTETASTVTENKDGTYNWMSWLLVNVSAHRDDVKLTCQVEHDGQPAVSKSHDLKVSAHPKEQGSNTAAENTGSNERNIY

Binder | Kd [1] [nM] | koff [1] [s⁻¹] | kon [1] [M⁻¹ s⁻¹] | EC50 [2] [nM] | TOP MFI [2] [MFI] | SHP-1 recruitment blocking, IC50 [3] [nM] | SHP-1 recruitment blocking, TOP blocking (%) [3] [%] | EC50 (read off the curve) [4] [nM] | IC50 [5] [nM] | TOP blocking (%) [5] [%] | EC50 [6] [nM] | TOP MFI [6] [MFI] | IC50 [7] [nM] | TOP blocking (%) [7] [%] | EC50 [8] [nM] | TOP MFI [8] [MFI]
hu025.021 (antibody, V domains shown, Humanized 025; also called hu025.21) VH: EVQLVQSGAEVKKPGATVKISCKVSGFNIKDYYMHWVQQAPGKGLEWIGRIDPEDAETKYAPKFQGRVTITADTSTNTAYMELSSLRSEDTAVYYCDRGLAYWGQGTLVTVSS VL: EIVLTQSPATLSLSPGERATLSCSASSSVSSSYLYWYQQKPGQAPKLWIYSTSNLASGIPARFSGSGSGTDYTLTISSLEPEDFAVYYCHQWSSYPYTFGQGTKLEIK | 3.05 | 0.00183 | 599000 | 0.21 | 22100 | 0.1 | 86.3 | ~0.7 | 2.07 | 97.7 | 0.68 | 72000 | 1.96 | 98.3 | 1.08 | 56400
hu025.033 (antibody, V domains shown, Humanized 025) VH: EVQLVQSGAEVKKPGATVKISCKVSGFNIKDYYMHWVQQAPGKGLEWIGRIDPEDAETKYAPKFQGRVTITADTSTDTAYMELSSLRSEDTAVYYCDRGLAYWGQGTLVTVSS VL: EIVLTQSPATLSLSPGERATLSCSASSSVSSSYLYWYQQKPGQAPKLWIYSTSNLASGIPARFSGSGSGTDYTLTISSLEPEDFAVYYCHQWSSYPYTFGQGTKLEIK |  |  |  | 0.21 | 20900 | 0.19 | 84.5 | ~0.7 | 2.22 | 97.2 | 0.8 | 69700 | 1.88 | 98.3 | 0.99 | 53800
hu025.059 (antibody, V domains shown, Humanized 025; also called hu025.59) VH: EVQLVQSGAEVKKPGATVKISCKASGFNIKDYYMHWVQQAPGKGLEWIGRIDPEDAETKYAPKFQGRVTITADTSTNTAYMELSSLRSEDTAVYYCDRGLAYWGQGTLVTVSS VL: EIVLTQSPATLSLSPGERATLSCSASSSVSSSYLYWYQQKPGQAPKLWIYSTSNLASGIPARFSGSGSGTDYTLTISSLEPEDFAVYYCHQWSSYPYTFGQGTKLEIK | 2.29 | 0.00123 | 536000 | 0.2 | 22700 | 0.1 | 78.8 | ~0.7 | 2.48 | 97.1 | 0.67 | 73100 | 2.03 | 98.3 | 1.05 | 59400
